Four molecules from patent publication US20230203170A1 (DRAGONBOAT BIOPHARMACEUTICAL SHANGHAI, published 2023) can be followed below.

Experiment [1] addresses full-length mouse CSF-1R (RefSeq ID NP_001032948) expressed on HEK293F cells (mouse) (UniProt P09581). Put plainly: flow cytometry on HEK293F cells transiently expressing full-length mouse CSF-1R (IRES-EGFP vector), IgG at 100 nM, Alexa Fluor 647 anti-human Fc detection [Conti.]. For orientation: In flow cytometry, cells or beads pass a laser one at a time.
Experiment [2] concerns the target T1, full-length mouse CSF-1R (RefSeq ID NP_001032948) expressed on HEK293F cells (mouse, UniProt P09581 20-977).
T1 construct: whole, on cells
T1 sequence (looked up): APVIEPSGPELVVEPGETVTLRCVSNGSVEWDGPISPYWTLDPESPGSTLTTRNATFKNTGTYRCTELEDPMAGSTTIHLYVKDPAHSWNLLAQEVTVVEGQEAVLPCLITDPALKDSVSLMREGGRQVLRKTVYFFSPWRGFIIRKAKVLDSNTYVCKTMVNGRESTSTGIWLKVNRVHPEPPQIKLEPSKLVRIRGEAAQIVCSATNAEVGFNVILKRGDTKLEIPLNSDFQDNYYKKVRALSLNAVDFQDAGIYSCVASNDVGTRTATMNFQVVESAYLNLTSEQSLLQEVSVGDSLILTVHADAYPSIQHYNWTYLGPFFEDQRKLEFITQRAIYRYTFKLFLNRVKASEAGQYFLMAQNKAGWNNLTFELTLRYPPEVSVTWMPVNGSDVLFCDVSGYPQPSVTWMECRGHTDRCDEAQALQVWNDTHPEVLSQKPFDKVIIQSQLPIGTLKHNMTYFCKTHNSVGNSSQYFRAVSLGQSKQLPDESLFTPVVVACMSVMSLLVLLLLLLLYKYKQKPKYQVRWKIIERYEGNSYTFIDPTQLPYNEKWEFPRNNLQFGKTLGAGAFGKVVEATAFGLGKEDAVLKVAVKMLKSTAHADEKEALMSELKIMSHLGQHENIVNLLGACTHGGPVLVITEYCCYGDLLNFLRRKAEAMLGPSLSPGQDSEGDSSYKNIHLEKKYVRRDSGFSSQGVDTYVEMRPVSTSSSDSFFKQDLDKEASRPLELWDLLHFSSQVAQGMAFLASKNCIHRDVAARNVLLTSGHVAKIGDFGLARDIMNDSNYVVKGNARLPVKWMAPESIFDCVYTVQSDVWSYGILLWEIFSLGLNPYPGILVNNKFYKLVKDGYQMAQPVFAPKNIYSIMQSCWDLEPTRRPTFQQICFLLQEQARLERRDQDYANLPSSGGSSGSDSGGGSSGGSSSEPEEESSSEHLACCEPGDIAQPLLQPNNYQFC
The experiment is described as follows: flow cytometry on transfected HEK293F cells. The method, then:
(§1) The specificities of the antibodies were also assessed against human, monkey and mouse CSF-1R that are transiently expressed on the surface of HEK293F cells (FIG. 1). Briefly, HEK293F cells were transfected with a plasmid expressing full-length human, monkey (RefSeq ID XP_015307616) or mouse (RefSeq ID NP_001032948) CSF-1R from a bicistronic IRES vector. EGFP was used to identify the transfected cells. After 40 hrs, the transfected cells were harvested and then washed once with 1% PBSA buffer (1% (w/v) BSA in 1×PBS). Cells were then incubated with various IgGs (each at 100 nM) for 1 hr at room temperature, washed once with pre-chilled 1% PBSA buffer, and incubated with Alexa Fluor® 647 conjugated mouse anti-human Fc antibodies for 30 min on ice. The cells were washed once prior to analysis by flow cytometry (Beckman® CytoFlex).

Experiment [3] concerns the target T2, human CSF1R-His (Acrobiosystem, CSR-H5228) (human, UniProt P07333 20-512, limits assumed).
T2 construct: Bought protein; The catalogue number is printed only for the SPR assay; also called human CSF-1R protein; not shown: His tag
The experiment is described as follows: SPR Biacore T200; IgG captured by anti-human Fc, CSF1R-His as analyte, 1:1 fit. From the text: The specific binding affinity and kinetics of antibodies against human CSF-1R protein were examined by surface plasmon resonance (SPR) analysis using a Biacore™ T200 instrument (GE, USA) according to the manufacturer’s guidelines. Anti-Human IgG (Fc) antibody (Sigma, I2136) was immobilized on CM5 chips according to the instructions of Amine Coupling kit (GE Biacore #BR-1000-50). The immobilized Anti-Human IgG (Fc) antibody was used to capture the antibodies. […] The running buffer used was 0.01 M HEPES, 0.15 M NaCl, 3 mM EDTA, 0.05% (v/v) surfactant P20, pH 7.4. Corresponding controls were conducted in each case using a blank flow cell with no protein captured for “background” subtraction. The association and dissociation curves were fitted to a 1:1 Langmuir binding model using Biacore T200 Evaluation Software (GE, USA) according to the manufacturer’s guidelines.
Background: SPR reads the build-up and loss of mass on a sensor chip optically.

Experiment [4] concerns the target full-length monkey CSF-1R (RefSeq ID XP_015307616) expressed on HEK293F cells (monkey, UniProt A0A2K5WG90 20-976). Put plainly: flow cytometry on HEK293F cells transiently expressing full-length monkey CSF-1R (IRES-EGFP vector), IgG at 100 nM, Alexa Fluor 647 anti-human Fc detection [Conti.]. The method, then:
as §1

In experiment [5] the target is T3, full-length human CSF-1R expressed on cells (human, UniProt P07333 20-972).
T3 construct: whole, on cells
The experiment is described as follows: flow cytometry on HEK293F cells transiently expressing full-length human CSF-1R (IRES-EGFP vector), IgG at 100 nM, Alexa Fluor 647 anti-human Fc detection [Conti.]. The protocol:
as §1

For experiment [6], the target named is T1, full-length mouse CSF-1R (RefSeq ID …). Put plainly: flow cytometry on HEK293F cells transiently expressing full-length mouse CSF-1R (IRES-EGFP vector), Alexa Fluor 647 anti-human Fc detection [Conti.]. The protocol:
as §1

Sequence of full-length monkey CSF-1R (RefSeq ID XP_015307616) expressed on HEK293F cells (A0A2K5WG90 entry or part of it limits assumed, form in doubt): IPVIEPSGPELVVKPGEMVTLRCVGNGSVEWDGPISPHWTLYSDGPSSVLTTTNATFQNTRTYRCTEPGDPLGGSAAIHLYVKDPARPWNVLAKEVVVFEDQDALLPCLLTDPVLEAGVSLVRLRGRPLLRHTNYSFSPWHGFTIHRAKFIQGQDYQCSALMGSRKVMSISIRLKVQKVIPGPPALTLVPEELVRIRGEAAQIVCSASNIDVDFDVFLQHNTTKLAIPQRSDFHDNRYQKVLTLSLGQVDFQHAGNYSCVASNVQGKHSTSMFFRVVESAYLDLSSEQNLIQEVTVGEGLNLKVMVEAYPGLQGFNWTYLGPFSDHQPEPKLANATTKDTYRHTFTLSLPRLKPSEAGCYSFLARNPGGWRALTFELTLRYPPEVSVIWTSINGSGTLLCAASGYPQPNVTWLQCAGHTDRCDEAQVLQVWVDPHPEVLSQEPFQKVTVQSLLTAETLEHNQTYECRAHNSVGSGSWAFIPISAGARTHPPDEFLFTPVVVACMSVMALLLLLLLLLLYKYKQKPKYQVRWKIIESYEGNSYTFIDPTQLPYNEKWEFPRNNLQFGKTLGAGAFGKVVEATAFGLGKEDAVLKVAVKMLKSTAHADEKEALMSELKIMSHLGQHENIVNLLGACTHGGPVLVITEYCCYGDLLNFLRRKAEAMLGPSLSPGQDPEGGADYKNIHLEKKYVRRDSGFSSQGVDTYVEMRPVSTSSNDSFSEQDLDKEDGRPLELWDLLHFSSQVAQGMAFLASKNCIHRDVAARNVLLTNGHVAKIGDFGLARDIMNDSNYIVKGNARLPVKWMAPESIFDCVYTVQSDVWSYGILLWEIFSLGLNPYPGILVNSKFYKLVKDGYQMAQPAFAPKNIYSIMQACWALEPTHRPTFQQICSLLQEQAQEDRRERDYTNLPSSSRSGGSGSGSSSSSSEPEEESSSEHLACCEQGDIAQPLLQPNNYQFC

As to Isotype Ctrl (antibody), the percent of cells in the upper right quadrant (APC Ab binding positive, FITC Ag display positive) in experiment [1] worked out at 0.17%.

B1: TY21431 (antibody, human IgG4, V domains shown)
VH: EVQLVESGGGLVQPGGSLRLSCAASGFTFTDYAIHWVRQAPGKGLEWVSVISGYGSSTYYADSVKGRFTISRDNSKNTLYLQLNSLRAEDTAVYYCARGSYSSVYFDVWGQGTLVTVSS
VL: DIQLTQSPSSLSASVGDRVTITCKASQDVRTAVAWYQQKPGKAPKLLIYAASSLQSGVPSRFSGSGSGTDFTLTISSLQPEDFATYYCQQSYPIPFTFGQGTKVEIK
notes: Human IgG4 isotype with S241P mutation
The Kd is the free concentration of one partner at which half of the binding sites on the other are occupied at equilibrium, for simple one-to-one binding. For the molecule B1, the binding result in experiment [2] is listed as “no binding (tested: 100 nM)”. Besides, binding in experiment [3] was characterised by a dissociation constant (Kd) of 20.9 nM.

B2: TY21430 (antibody, human IgG4, V domains shown)
VH: EVQLVESGGGLVQPGGSLRLSCAASGYSITSGHHWAWIRQAPGKGLEWVSSISGSGSTTYYADSVKGRFTISRDNSKNTLYLQLNSLRAEDTAVYYCARGSYYGAGSFDYWGQGTLVTVSS
VL: DIQLTQSPSSLSASVGDRVTITCRASQGITSALAWYQQKPGKAPKLLIYDASSLESGVPSRFSGSGSGTDFTLTISSLQPEDFATYYCQQYYPWPWTFGQGTKVEIK
notes: as for B1
With B2, the “percent of cells in the upper right quadrant (APC Ab binding positive, FITC Ag display positive)” value in experiment [4] worked out at 32.3%; in experiment [5], 41.2%. The Kd in experiment [3] stood at 8.35 nM. For the same molecule, in experiment [6], the binding result was “no binding (tested: 100 nM)”.

B3: TY21432 (antibody, human IgG4, V domains shown)
VH: EVQLVESGGGLVQPGGSLRLSCAASGYTFSSYAIHWVRQAPGKGLEWVSVISGAGSSTYYADSVKGRFTISRDNSKNTLYLQLNSLRAEDTAVYYCARRTPAGNYFDYWGQGTLVTVSS
VL: DIQLTQSPSSLSASVGDRVTITCRASQGISRWLAWYQQKPGKAPKLLIYDASSLESGVPSRFSGSGSGTDFTLTISSLQPEDFATYYCEQYLEVPPTFGQGTKVEIK
notes: as for B1
Consider B3, for which the “percent of cells in the upper right quadrant (APC Ab binding positive, FITC Ag display positive)” value came out at 28.8% in experiment [4] and 41.7% in experiment [5]. Besides, the Kd in experiment [3] is 13.8 nM. Further, in experiment [6], the binding result is on record as “no binding (tested: 100 nM)”.
